Potency Assay EC50 (nM), transient hRXFP1 cAMP assay data for 7 molecules are collected here from US20230340058A1.

To fix the notation:
B1: SEQ ID NO: 79 (Fc fusion)
chain: DKTHTCPPCPAPEAAGGPSVFLFPPKPKDTLMISRTPEVTCVVVDVSHEDPEVKFNWYVDGVEVHNAKTKPREEQYNSTYRVVSVLTVLHQDWLNGKEYKCKVSNKALAAPIEKTISKAKGQPREPQVYTLPPSRDELTKNQVSLTCLVKGFYPSDIAVEWESNGQPENNYKTTPPVLDSDGSFFLYSKLTVDKSRWQQGNVFSCSVLHEALHSHYTQKSLSLSPGKGGSDSWQEEVIKLCGRELVRAQIAICGKSTGGGEGGGEGGGEGRQDYSALANKCCHVGCTKRSLAQFC
B2: SEQ ID NO: 82 (Fc fusion)
chain: B1 chain with G260E, E261G, G262E, G267E, E269G, G270S, D273L
B3: SEQ ID NO: 85 (Fc fusion)
chain: B1 chain with G260E, E261G, G262E, G267E, E269G, G270S
B4: SEQ ID NO: 80 (Fc fusion)
chain: DKTHTCPPCPAPEAAGGPSVFLFPPKPKDTLMISRTPEVTCVVVDVSHEDPEVKFNWYVDGVEVHNAKTKPREEQYNSTYRVVSVLTVLHQDWLNGKEYKCKVSNKALAAPIEKTISKAKGQPREPQVYTLPPSRDELTKNQVSLTCLVKGFYPSDIAVEWESNGQPENNYKTTPPVLDSDGSFFLYSKLTVDKSRWQQGNVFSCSVLHEALHSHYTQKSLSLSPGGGSDSWQEEVIKLCGRELVRAQIAICGKSTGGGEGGGEGGGEGRQDYSALANKCCHVGCTKRSLARFC
B5: SEQ ID NO: 81 (Fc fusion)
chain: B4 chain with R292Q
B6: SEQ ID NO: 83 (Fc fusion)
chain: B4 chain with G259E, E260G, G261E, G266E, E268G, G269S, D272L
B7: SEQ ID NO: 84 (Fc fusion)
chain: B4 chain with G259E, E260G, G261E, G266E, E268G, G269S, D272L, R292Q

Numbering of substitutions follows the chain as printed.

In the assay the target is human RXFP1, full-length (human), Q9HBX9. The assay is described as follows: cell-based or functional assay.
Sequence of human RXFP1, full-length (human), Q9HBX9 (Q9HBX9 whole entry): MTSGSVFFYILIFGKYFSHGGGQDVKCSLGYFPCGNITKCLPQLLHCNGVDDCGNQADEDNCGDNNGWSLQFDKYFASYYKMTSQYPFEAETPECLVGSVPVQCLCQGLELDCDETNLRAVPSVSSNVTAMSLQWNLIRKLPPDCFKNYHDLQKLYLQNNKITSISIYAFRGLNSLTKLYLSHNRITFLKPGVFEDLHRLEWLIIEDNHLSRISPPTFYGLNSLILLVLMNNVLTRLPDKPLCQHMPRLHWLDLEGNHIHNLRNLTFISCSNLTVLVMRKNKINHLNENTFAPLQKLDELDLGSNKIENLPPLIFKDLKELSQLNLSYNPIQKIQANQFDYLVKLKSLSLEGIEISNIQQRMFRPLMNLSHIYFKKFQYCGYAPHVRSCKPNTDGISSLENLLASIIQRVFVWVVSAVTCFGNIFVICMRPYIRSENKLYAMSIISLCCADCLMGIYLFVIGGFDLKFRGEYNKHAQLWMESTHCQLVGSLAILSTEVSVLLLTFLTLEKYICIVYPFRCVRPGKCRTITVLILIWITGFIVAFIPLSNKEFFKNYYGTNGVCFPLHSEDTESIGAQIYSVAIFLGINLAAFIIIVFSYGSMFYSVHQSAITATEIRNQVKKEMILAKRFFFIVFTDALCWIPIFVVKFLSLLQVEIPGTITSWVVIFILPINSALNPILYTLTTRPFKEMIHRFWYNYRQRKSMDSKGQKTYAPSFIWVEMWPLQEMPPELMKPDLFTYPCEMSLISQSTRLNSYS
Take B1: the Potency Assay EC50 (nM), transient hRXFP1 cAMP assay worked out at 117 nM.

Take B2: the Potency Assay EC50 (nM), transient hRXFP1 cAMP assay is 18.9 nM. B3 showed a Potency Assay EC50 (nM), transient hRXFP1 cAMP assay of 54.4 nM. In turn, B4 came in with a Potency Assay EC50 (nM), transient hRXFP1 cAMP assay of 162 nM. In the case of B5 it was 426 nM. In the case of B6 it was 9.3 nM.

B7 returned a Potency Assay EC50 (nM), transient hRXFP1 cAMP assay of 41.9 nM.
